Target: T1, Insulin from Porcine Pancreas (antigen) (Sus scrofa, UniProt P01315)
T1 construct: Insulin from Porcine Pancreas; purchased SIGMA 1-5523; host or cells: porcine pancreas (tissue-derived)
Assay: Guinea pig ID immunization with porcine insulin; antigen/antibody complex by Dextran coated Charcoal Radioimmunoassay
Assay type: in vivo, Dunkin Hartley male Guinea Pigs
Method: Various animals (e.g., Guinea pigs) are used in industry to produce primary and secondary antibodies for biological and clinical research, based on immunoassay methods (e.g. ELISA). In some of these animals the specific antigen is injected intradermally, in order to achieve a larger and/or faster immune response (antibodies production). After the primary immunization, several immunization boosters are given at different time intervals, and blood is collected. The antibodies production level is measured by measuring the antigen/antibody complex formation levels, in different dilution levels, using conventional immunoassay methods. Usually, a fixed cut-off value (percentage of antigen/antibodies complex formation in a specific dilution level) must be achieved.
18 Dunkin Hartley male Guinea Pigs were divided into two groups. The animals were anesthetized with a 0.2 ml of Ketamine/Xylazine mixture (1:1 ratio) I.M. Anesthetizing was followed by 0.1 ml I.D. immunization with Insulin from Porcine Pancreas (SIGMA, Cat. No. 1-5523) in a Freund's adjuvant emulsion mixture (SIGMA), injected in 4 sites on the skin. […] After plasma separation, antigen/antibody complex levels were detected in the 2 ml serum sample, using a Dextran coated Charocal Radioimmunoassay method.

T1 sequence (P01315 25-54 limits assumed): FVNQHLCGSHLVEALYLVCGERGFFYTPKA
T1 sequence (P01315 88-108 limits assumed): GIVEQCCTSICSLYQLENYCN

Q: With “Insulin from Porcine Pancreas: Insulin from Porcine Pancreas (SIGMA) in a Freund's adjuvant emulsion mixture, used as immunizing antigen” as the substance, how does the “production time needed to achieve the per-protocol cut-off value, microneedle versus regular injection” value (cut-off 50% Antigen/Antibody complex formation at dilution 1:80 K, microneedle vs regular 25 g needle) read?
A: 3 times shorter

Q: What about the “Antigen/Antibody complex formation, Ka [L/mol] values, microneedle versus regular injection” value (dilution level 1:80K, ID microneedles (Nano) vs regular 25 g hypodermic needle, in Freund's adjuvant) of the same substance?
A: more than 3 times higher
